Experiments:
Experiment in all cases: holdup assay
Parameters in all cases: key: below the threshold = too weak to quantify, mostly under pKd 3.1 to 4
FRMPD2_1, Q68DX3 = target: FRMPD2_1, Q68DX3
Inadl_10, Q8NI35 = target: Inadl_10, Q8NI35
DLG4_2, P78352 = target: DLG4_2, P78352
FRMPD2_3, Q68DX3 = target: FRMPD2_3, Q68DX3
FRMPD1, Q5SYB0 = target: T1, FRMPD1, Q5SYB0
T1 sequence (Q5SYB0 52-145, limits assumed, looked up): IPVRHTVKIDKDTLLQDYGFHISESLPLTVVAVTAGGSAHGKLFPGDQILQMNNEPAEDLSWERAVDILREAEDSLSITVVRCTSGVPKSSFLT

PDZD2_2, O15018 = target: T2, PDZD2_2, O15018
T2 sequence (O15018 329-429, limits assumed, looked up): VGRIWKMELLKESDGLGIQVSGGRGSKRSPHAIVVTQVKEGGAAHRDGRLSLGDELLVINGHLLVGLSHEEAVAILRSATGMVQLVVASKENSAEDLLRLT

GRASP, Q7Z6J2 = target: GRASP, Q7Z6J2
Sequence of GRASP, Q7Z6J2 (Q7Z6J2 96-193): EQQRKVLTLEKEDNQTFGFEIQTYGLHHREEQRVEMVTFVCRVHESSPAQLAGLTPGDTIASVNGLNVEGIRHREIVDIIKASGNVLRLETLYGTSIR

NOS1, P29475 = target: NOS1, P29475
Sequence of NOS1, P29475 (P29475 9-101): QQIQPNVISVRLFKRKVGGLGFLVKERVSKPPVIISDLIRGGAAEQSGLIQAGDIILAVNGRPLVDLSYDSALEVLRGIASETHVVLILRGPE

APBA2_1, Q99767 = target: T3, APBA2_1, Q99767
T3 sequence (Q99767 563-664, limits assumed, looked up): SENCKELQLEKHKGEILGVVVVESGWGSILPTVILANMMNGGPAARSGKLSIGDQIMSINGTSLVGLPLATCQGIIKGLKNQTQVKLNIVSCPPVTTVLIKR

SNTB1, Q13884 = target: T4, SNTB1, Q13884
T4 sequence (Q13884 107-205, limits assumed, looked up): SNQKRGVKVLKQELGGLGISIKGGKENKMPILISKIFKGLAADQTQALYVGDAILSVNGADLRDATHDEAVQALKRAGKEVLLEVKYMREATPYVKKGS

PARD3_3, Q8TEW0 = target: PARD3_3, Q8TEW0
Sequence of PARD3_3, Q8TEW0 (Q8TEW0 582-685): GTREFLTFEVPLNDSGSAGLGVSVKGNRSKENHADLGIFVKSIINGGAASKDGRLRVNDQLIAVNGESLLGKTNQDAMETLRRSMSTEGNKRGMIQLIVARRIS

DLG3_1, Q92796 = target: T5, DLG3_1, Q92796
T5 sequence (Q92796 125-227, limits assumed, looked up): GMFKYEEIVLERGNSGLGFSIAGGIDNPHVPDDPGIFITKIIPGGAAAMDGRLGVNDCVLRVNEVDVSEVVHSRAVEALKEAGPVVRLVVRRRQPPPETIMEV

Inadl_5, Q8NI35 = target: Inadl_5, Q8NI35
Sequence of Inadl_5, Q8NI35 (Q8NI35 673-780): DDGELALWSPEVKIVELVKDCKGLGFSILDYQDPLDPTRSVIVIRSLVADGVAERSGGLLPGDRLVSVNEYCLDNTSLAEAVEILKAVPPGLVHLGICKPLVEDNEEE

LNX2_3, Q8N448 = target: T6, LNX2_3, Q8N448
T6 sequence (Q8N448 463-564, limits assumed, looked up): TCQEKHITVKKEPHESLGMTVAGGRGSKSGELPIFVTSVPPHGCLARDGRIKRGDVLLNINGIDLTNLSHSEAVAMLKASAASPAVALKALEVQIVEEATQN

DLG1_3, Q12959 = target: DLG1_3, Q12959
DLG1_1, Q12959 = target: DLG1_1, Q12959
LIN7A, O14910 = target: T7, LIN7A, O14910
T7 sequence (O14910 103-200, limits assumed, looked up): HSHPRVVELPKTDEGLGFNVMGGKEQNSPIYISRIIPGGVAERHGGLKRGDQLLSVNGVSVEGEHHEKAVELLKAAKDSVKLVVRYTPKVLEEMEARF

TJP1_3, Q07157 = target: TJP1_3, Q07157
Sequence of TJP1_3, Q07157 (Q07157 416-512): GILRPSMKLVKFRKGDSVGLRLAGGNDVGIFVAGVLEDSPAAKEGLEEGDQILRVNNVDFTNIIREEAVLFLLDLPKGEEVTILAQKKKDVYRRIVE

SCRIB_1, Q14160 = target: SCRIB_1, Q14160
Sequence of SCRIB_1, Q14160 (Q14160 718-814): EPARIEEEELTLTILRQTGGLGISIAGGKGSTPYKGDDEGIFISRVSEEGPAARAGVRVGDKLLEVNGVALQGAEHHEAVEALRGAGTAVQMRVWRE

PARD3B_1, Q8TEW8 = target: T8, PARD3B_1, Q8TEW8
T8 sequence (Q8TEW8 196-299, limits assumed, looked up): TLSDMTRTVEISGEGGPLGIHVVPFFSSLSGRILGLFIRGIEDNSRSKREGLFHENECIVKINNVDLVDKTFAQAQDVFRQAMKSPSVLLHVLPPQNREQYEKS

HTRA1, Q92743 = target: HTRA1, Q92743
Sequence of HTRA1, Q92743 (Q92743 360-477): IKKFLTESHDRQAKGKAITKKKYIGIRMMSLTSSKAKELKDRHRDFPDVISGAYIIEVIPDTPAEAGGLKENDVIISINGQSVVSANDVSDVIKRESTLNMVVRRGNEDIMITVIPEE

HTRA4, P83105 = target: T9, HTRA4, P83105
T9 sequence (P83105 378-476, limits assumed, looked up): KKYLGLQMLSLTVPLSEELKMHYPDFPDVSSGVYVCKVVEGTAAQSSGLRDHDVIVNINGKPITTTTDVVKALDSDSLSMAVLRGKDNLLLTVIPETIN

MPP6, Q9NZW5 = target: T10, MPP6, Q9NZW5
T10 sequence (Q9NZW5 125-219, limits assumed, looked up): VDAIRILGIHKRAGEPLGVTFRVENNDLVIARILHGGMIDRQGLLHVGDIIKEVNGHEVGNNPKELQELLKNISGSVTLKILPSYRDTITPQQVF

LDB3, O75112 = target: LDB3, O75112
Sequence of LDB3, O75112 (O75112 1-94): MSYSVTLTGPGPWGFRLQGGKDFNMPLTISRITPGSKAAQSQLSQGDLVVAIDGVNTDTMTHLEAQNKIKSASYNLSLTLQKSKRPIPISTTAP

NHERF3_4, Q5T2W1 = target: T11, NHERF3_4, Q5T2W1
T11 sequence (Q5T2W1 373-468, limits assumed, looked up): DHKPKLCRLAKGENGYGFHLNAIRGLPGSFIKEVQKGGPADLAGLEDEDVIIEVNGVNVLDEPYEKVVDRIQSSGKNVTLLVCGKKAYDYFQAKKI

CARD11, Q9BXL7 = target: T12, CARD11, Q9BXL7
T12 sequence (Q9BXL7 662-765, limits assumed, looked up): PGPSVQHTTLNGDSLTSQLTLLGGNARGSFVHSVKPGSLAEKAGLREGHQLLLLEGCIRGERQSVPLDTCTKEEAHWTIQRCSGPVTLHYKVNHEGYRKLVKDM

[1] = plain residues with an end cap or a label only (N-terminal biotin on a linker: ahx)
[2] = plain residues with an end cap or a label only (N-terminal biotin on a linker: ttds)

Sequence of FRMPD2_3, Q68DX3 (Q68DX3 1073-1166): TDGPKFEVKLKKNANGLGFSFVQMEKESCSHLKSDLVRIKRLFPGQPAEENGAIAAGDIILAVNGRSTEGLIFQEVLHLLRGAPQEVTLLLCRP
Sequence of DLG4_2, P78352 (P78352 155-259): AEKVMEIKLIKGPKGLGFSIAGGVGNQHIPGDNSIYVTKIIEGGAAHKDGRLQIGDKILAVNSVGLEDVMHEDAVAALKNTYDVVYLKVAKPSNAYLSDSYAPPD
Sequence of FRMPD2_1, Q68DX3 (Q68DX3 770-861): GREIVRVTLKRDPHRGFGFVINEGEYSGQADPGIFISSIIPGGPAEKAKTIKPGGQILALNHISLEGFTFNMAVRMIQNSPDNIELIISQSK
Sequence of Inadl_10, Q8NI35 (Q8NI35 1673-1763): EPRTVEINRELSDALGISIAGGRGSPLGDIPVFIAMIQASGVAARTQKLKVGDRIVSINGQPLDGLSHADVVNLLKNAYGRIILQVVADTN

ADENEQVSAV [RAPGEF6, Q8TEU7]
pKd (FRMPD2_1, Q68DX3; [1]): below the threshold
pKd (Inadl_10, Q8NI35; [1]): below the threshold
pKd (DLG4_2, P78352; [1]): 4.05
pKd (FRMPD2_3, Q68DX3; [1]): below the threshold
pKd (FRMPD1, Q5SYB0; [1]): below the threshold
pKd (PDZD2_2, O15018; [1]): 5.5
pKd (GRASP, Q7Z6J2; [1]): 4.66
pKd (NOS1, P29475; [1]): 3.61
pKd (APBA2_1, Q99767; [1]): below the threshold
pKd (SNTB1, Q13884; [1]): 3.71
pKd (PARD3_3, Q8TEW0; [1]): below the threshold
pKd (DLG3_1, Q92796; [1]): below the threshold
pKd (Inadl_5, Q8NI35; [1]): below the threshold
pKd (LNX2_3, Q8N448; [1]): below the threshold
pKd (DLG1_3, Q12959; [1]): below the threshold
pKd (DLG1_1, Q12959; [1]): below the threshold
pKd (LIN7A, O14910; [1]): below the threshold
pKd (TJP1_3, Q07157; [1]): below the threshold
pKd (SCRIB_1, Q14160; [1]): 3.65
pKd (PARD3B_1, Q8TEW8; [1]): below the threshold
pKd (HTRA1, Q92743; [1]): 3.94
pKd (HTRA4, P83105; [1]): below the threshold
pKd (MPP6, Q9NZW5; [1]): below the threshold
pKd (LDB3, O75112; [1]): below the threshold
pKd (NHERF3_4, Q5T2W1; [1]): below the threshold
pKd (CARD11, Q9BXL7; [1]): below the threshold

SRSRRRETAL [HPV33-E6, P06427]
pKd (FRMPD2_1, Q68DX3; [2]): 3.54
pKd (Inadl_10, Q8NI35; [2]): below the threshold
pKd (DLG4_2, P78352; [2]): 4.77
pKd (FRMPD2_3, Q68DX3; [2]): below the threshold
pKd (FRMPD1, Q5SYB0; [2]): below the threshold
pKd (PDZD2_2, O15018; [2]): below the threshold
pKd (GRASP, Q7Z6J2; [2]): 3.49
pKd (NOS1, P29475; [2]): 4.03
pKd (APBA2_1, Q99767; [2]): below the threshold
pKd (SNTB1, Q13884; [2]): 5.05
pKd (PARD3_3, Q8TEW0; [2]): below the threshold
pKd (DLG3_1, Q92796; [2]): 3.79
pKd (Inadl_5, Q8NI35; [2]): below the threshold
pKd (LNX2_3, Q8N448; [2]): below the threshold
pKd (DLG1_3, Q12959; [2]): 4.56
pKd (DLG1_1, Q12959; [2]): 4.5
pKd (LIN7A, O14910; [2]): below the threshold
pKd (TJP1_3, Q07157; [2]): below the threshold
pKd (SCRIB_1, Q14160; [2]): 5.66
pKd (PARD3B_1, Q8TEW8; [2]): 3.43
pKd (HTRA1, Q92743; [2]): 3.48
pKd (HTRA4, P83105; [2]): below the threshold
pKd (MPP6, Q9NZW5; [2]): below the threshold
pKd (LDB3, O75112; [2]): below the threshold
pKd (NHERF3_4, Q5T2W1; [2]): 3.97
pKd (CARD11, Q9BXL7; [2]): below the threshold

SGGKRKETLV [NET1, Q7Z628]
pKd (FRMPD2_1, Q68DX3; [2]): 3.95
pKd (Inadl_10, Q8NI35; [2]): below the threshold
pKd (DLG4_2, P78352; [2]): 5.77
pKd (FRMPD2_3, Q68DX3; [2]): below the threshold
pKd (FRMPD1, Q5SYB0; [2]): below the threshold
pKd (PDZD2_2, O15018; [2]): 4.25
pKd (GRASP, Q7Z6J2; [2]): below the threshold
pKd (NOS1, P29475; [2]): 4.09
pKd (APBA2_1, Q99767; [2]): below the threshold
pKd (SNTB1, Q13884; [2]): 4.56
pKd (PARD3_3, Q8TEW0; [2]): below the threshold
pKd (DLG3_1, Q92796; [2]): 4.61
pKd (Inadl_5, Q8NI35; [2]): 3.78
pKd (LNX2_3, Q8N448; [2]): below the threshold
pKd (DLG1_3, Q12959; [2]): 4.44
pKd (DLG1_1, Q12959; [2]): 5.09
pKd (LIN7A, O14910; [2]): below the threshold
pKd (TJP1_3, Q07157; [2]): below the threshold
pKd (SCRIB_1, Q14160; [2]): 4
pKd (PARD3B_1, Q8TEW8; [2]): 3.52
pKd (HTRA1, Q92743; [2]): below the threshold
pKd (HTRA4, P83105; [2]): below the threshold
pKd (MPP6, Q9NZW5; [2]): below the threshold
pKd (LDB3, O75112; [2]): below the threshold
pKd (NHERF3_4, Q5T2W1; [2]): below the threshold
pKd (CARD11, Q9BXL7; [2]): below the threshold

SAPATLSSRA [PDLIM2, Q96JY6]
pKd (FRMPD2_1, Q68DX3; [1]): below the threshold
pKd (Inadl_10, Q8NI35; [1]): below the threshold
pKd (DLG4_2, P78352; [1]): below the threshold
pKd (FRMPD2_3, Q68DX3; [1]): below the threshold
pKd (FRMPD1, Q5SYB0; [1]): below the threshold
pKd (PDZD2_2, O15018; [1]): below the threshold
pKd (GRASP, Q7Z6J2; [1]): below the threshold
pKd (NOS1, P29475; [1]): below the threshold
pKd (APBA2_1, Q99767; [1]): below the threshold
pKd (SNTB1, Q13884; [1]): below the threshold
pKd (PARD3_3, Q8TEW0; [1]): below the threshold
pKd (DLG3_1, Q92796; [1]): below the threshold
pKd (Inadl_5, Q8NI35; [1]): below the threshold
pKd (LNX2_3, Q8N448; [1]): below the threshold
pKd (DLG1_3, Q12959; [1]): below the threshold
pKd (DLG1_1, Q12959; [1]): below the threshold
pKd (LIN7A, O14910; [1]): below the threshold
pKd (TJP1_3, Q07157; [1]): below the threshold
pKd (SCRIB_1, Q14160; [1]): below the threshold
pKd (PARD3B_1, Q8TEW8; [1]): below the threshold
pKd (HTRA1, Q92743; [1]): below the threshold
pKd (HTRA4, P83105; [1]): below the threshold
pKd (MPP6, Q9NZW5; [1]): below the threshold
pKd (LDB3, O75112; [1]): below the threshold
pKd (NHERF3_4, Q5T2W1; [1]): below the threshold
pKd (CARD11, Q9BXL7; [1]): below the threshold

FVETQHQTQV [FAT3, Q8TDW7]
pKd (FRMPD2_1, Q68DX3; [2]): below the threshold
pKd (Inadl_10, Q8NI35; [2]): 3.5
pKd (DLG4_2, P78352; [2]): 4.57
pKd (FRMPD2_3, Q68DX3; [2]): below the threshold
pKd (FRMPD1, Q5SYB0; [2]): below the threshold
pKd (PDZD2_2, O15018; [2]): 4.35
pKd (GRASP, Q7Z6J2; [2]): 3.69
pKd (NOS1, P29475; [2]): 3.95
pKd (APBA2_1, Q99767; [2]): below the threshold
pKd (SNTB1, Q13884; [2]): 4.19
pKd (PARD3_3, Q8TEW0; [2]): below the threshold
pKd (DLG3_1, Q92796; [2]): 3.85
pKd (Inadl_5, Q8NI35; [2]): below the threshold
pKd (LNX2_3, Q8N448; [2]): below the threshold
pKd (DLG1_3, Q12959; [2]): 3.95
pKd (DLG1_1, Q12959; [2]): 4.32
pKd (LIN7A, O14910; [2]): below the threshold
pKd (TJP1_3, Q07157; [2]): below the threshold
pKd (SCRIB_1, Q14160; [2]): below the threshold
pKd (PARD3B_1, Q8TEW8; [2]): below the threshold
pKd (HTRA1, Q92743; [2]): below the threshold
pKd (HTRA4, P83105; [2]): below the threshold
pKd (MPP6, Q9NZW5; [2]): below the threshold
pKd (LDB3, O75112; [2]): below the threshold
pKd (NHERF3_4, Q5T2W1; [2]): below the threshold
pKd (CARD11, Q9BXL7; [2]): below the threshold
